Experimental findings from PMC5472440 are described below.

For data set [1], the system named is hIno80CTD (human). Nature of the data set: MST. The settings on record: Hill coefficient 1.8 +/- 0.2, MST: 25 mM HEPES pH 8.0, 50 mM NaCl, 1 mM TCEP, 10% glycerol, 0.01% Tween-20, 0.1 mg/mL BSA, 25 C, EMSA: 25 mM HEPES pH 8.0, 50 mM NaCl, 0.5 mM …. For orientation: A gel shift assay detects complexes by their altered migration in electrophoresis.
In data set [2] the test system is hIno80CTD (human). Nature of the data set: EMSA. Conditions: Kd apparent, 50 nM DNA, MST: 25 mM HEPES pH 8.0, 50 mM NaCl, 1 mM TCEP, 10% glycerol, 0.01% Tween-20, 0.1 mg/mL BSA, 25 C, EMSA: 25 mM HEPES pH 8.0, 50 mM NaCl, 0.5 mM ….

In data set [1], 50 bp duplex DNA registered a K half of 1000 nM. Besides, in data set [2], the Kd was 1 µM.
